From paper PMC9830914, “Differential effects of mutations of POPDC proteins on heteromeric interaction and membrane trafficking” (Acta Neuropathologica Communications, 2023)
Changes are numbered by the printed parent chain. Values belong to the molecule of their own block, whether it stands above or below them.

How the values were obtained:
[1] = target: POPDC1-VC155 (human) (UniProt Q8NE79); assay: split reporter (BiFC, NanoBiT); BiFC in HEK293 cells, split Venus VC155 on POPDC1 and VN155 on POPDC2; Venus signal normalised to co-transfected mRFP and to the wild-type pair (set to 1); conditions: scale: relative to the wild-type pair
[2] = target: T1, POPDC1 p.S201F-VC155 (human, UniProt Q8NE79 1-360, p.S201F); assay: as above; conditions: partners not purified
T1 construct: POPDC1 (BVES), human, full-length cDNA with the patient variant p.S201F; source: HEK293, transfected, in cells; not shown: split Venus VC155, C-terminal, kept
T1 sequence (looked up): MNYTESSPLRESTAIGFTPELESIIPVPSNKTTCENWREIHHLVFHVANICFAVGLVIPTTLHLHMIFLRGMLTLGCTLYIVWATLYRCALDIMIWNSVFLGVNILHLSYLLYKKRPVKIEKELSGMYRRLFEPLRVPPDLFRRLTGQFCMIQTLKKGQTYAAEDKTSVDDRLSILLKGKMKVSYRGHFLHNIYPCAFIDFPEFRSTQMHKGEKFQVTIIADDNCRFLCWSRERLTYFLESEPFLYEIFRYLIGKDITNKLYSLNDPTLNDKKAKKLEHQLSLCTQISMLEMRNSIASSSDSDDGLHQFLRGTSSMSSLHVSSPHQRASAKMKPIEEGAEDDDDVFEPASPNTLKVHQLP

[3] = target: POPDC1 p.Q153X-VC155 (human) (UniProt Q8NE79); assay: as above; conditions: scale: relative to the wild-type pair
[4] = target: the molecule itself; assay: SDS-PAGE and Western blot of oligomer bands; COS-7 cells lysed in 4 M urea and 10% SDS without a reducing agent; anti-GFP antibody detects complexes that hold POPDC1-CFP
[5] = target: the molecule itself; assay: FRET or BRET; type-1 quantitative NanoBRET in HEK293 cells; C-terminal NanoLuc and HaloTag (HaloTag-618 dye); expression ratios varied at constant total expression; curves compared to ideal curves for monomers, dimers and other stoichiometries

B2: POPDC1-CFP (natural protein, human, UniProt Q8NE79 1-360, looked up)
chain: T1 sequence (looked up) with F201S
notes: POPDC1 (BVES), human, full length cDNA in pECFP-N1; printed molecular weight of POPDC1 41.5 kDa; also called POPDC1-ECFP; source: COS-7, transfected, in lysate (4 M urea, 10% SDS, no reducing agent); not shown: CFP, C-terminal, kept
stoichiometry N [4]: 2

B3: POPDC1 with C-terminal NanoLuc or HaloTag (NanoBRET constructs) (natural protein, human, UniProt Q8NE79 1-360, looked up)
chain: T1 sequence (looked up) with F201S
modifications: HaloTag-618 dye on the HaloTag copy
notes: POPDC1 (BVES), human cDNA cloned into pFC14K (HaloTag) or pFC32K (NanoLuc); Two differently tagged copies of one protein, written as one molecule: each copy carries only one of the two tags; With POPDC2-NL the HaloTag copy was used; also called POPDC1-NL; POPDC1-HT; source: HEK293, transiently transfected, in live cells; not shown: NanoLuc (on the copy POPDC1-NL), C-terminal, kept; HaloTag (on …)
stoichiometry N [5]: 2

The remaining lines, values ahead:

BiFC signal relative to the wild-type pair [1]: 0.59
Molecule: POPDC2 p.W188X-VN155 (from UniProt Q9HBU9 1-187) (domain or fragment)

BiFC signal relative to the wild-type pair [2]: 0.43 relative to the wild-type pair (set to 1) | BiFC signal relative to the wild-type pair [3]: 0.248
B1: POPDC2-VN155 (natural protein, human, UniProt Q9HBU9 1-364, looked up)
chain: MSANSSRVGQLLLQGSACIRWKQDVEGAVYHLANCLLLLGFMGGSGVYGCFYLFGFLSAGYLCCVLWGWFSACGLDIVLWSFLLAVVCLLQLAHLVYRLREDTLPEEFDLLYKTLCLPLQVPLQTYKEIVHCCEEQVLTLATEQTYAVEGETPINRLSLLLSGRVRVSQDGQFLHYIFPYQFMDSPEWESLQPSEEGVFQVTLTAETSCSYISWPRKSLHLLLTKERYISCLFSALLGYDISEKLYTLNDKLFAKFGLRFDIRLPSLYHVLGPTAADAGPESEKGDEEVCEPAVSPPQATPTSLQQTPPCSTPPATTNFPAPPTRARLSRPDSGILASRIPLQSYSQVISRGQAPLAPTHTPEL
notes: POPDC2, human, full-length wild-type cDNA; also called wild-type POPDC2 with split Venus VN155; source: HEK293, transfected, in cells; not shown: split Venus VN155, C-terminal, kept
